Starred links: 1 amine or outer side, 2 acyl side, 3 side chain; linkers in the order of their positions; H or OH if unused. Positions of bridges follow the written chain, without caps; N, C: chain ends. Non-standard residues stand in square brackets, D forms with d. Primed or numbered codes have the meaning given here. B5(4) = 2,2-bis(4-pentenyl)glycine = 2-amino-2-(pent-4-en-1-yl)hept-6-enoic acid (stitching residue), C=CCCCC(CCCC=C)(N[*:1])C(=O)[*:2]; B5(5) = 2,2-bis(4-pentenyl)glycine, 2-amino-2-(pent-4-en-1-yl)hept-6-enoic acid (stitching residue), C=CCCCC(CCCC=C)(N[*:1])C(=O)[*:2]; SeN = (S)-5-(((allyloxy)carbonyl)(methyl)amino)-2-amino-2-methylpentanoic acid, C=CCOC(=O)N(C)CCC[C@](C)(N[*:1])C(=O)[*:2]; B5(14) = 2-amino-2-(pent-4-en-1-yl)hept-6-enoic acid (bis-pentenylglycine), C=CCCCC(CCCC=C)(N[*:1])C(=O)[*:2]; Phe(3,4,5-F3) = N[C@@H](Cc1cc(F)c(F)c(F)c1)C(=O)O; Phe(3,4-F2) = N[C@@H](Cc1ccc(F)c(F)c1)C(=O)O; Phe(3-Cl) = N[C@@H](Cc1cccc(Cl)c1)C(=O)O; Phe(3-Me) = Cc1cccc(C[C@H](N)C(=O)O)c1; 2Nal = N[C@@H](Cc1ccc2ccccc2c1)C(=O)O; His(τ-Me) = Cn1cnc(C[C@H](N)C(=O)O)c1; αAllylPro = C=CC[C@@]1(C(=O)O)CCCN1; S8 = C=CCCCCCC[C@](C)(N)C(=O)O
T1: full-length beta-Catenin (Uniprot ID P35222) (Homo sapiens (Human), UniProt P35222 1-781)
T1 construct: Used full-length in the FP and AlphaScreen assays; also called B-Catenin; bCat
T1 sequence: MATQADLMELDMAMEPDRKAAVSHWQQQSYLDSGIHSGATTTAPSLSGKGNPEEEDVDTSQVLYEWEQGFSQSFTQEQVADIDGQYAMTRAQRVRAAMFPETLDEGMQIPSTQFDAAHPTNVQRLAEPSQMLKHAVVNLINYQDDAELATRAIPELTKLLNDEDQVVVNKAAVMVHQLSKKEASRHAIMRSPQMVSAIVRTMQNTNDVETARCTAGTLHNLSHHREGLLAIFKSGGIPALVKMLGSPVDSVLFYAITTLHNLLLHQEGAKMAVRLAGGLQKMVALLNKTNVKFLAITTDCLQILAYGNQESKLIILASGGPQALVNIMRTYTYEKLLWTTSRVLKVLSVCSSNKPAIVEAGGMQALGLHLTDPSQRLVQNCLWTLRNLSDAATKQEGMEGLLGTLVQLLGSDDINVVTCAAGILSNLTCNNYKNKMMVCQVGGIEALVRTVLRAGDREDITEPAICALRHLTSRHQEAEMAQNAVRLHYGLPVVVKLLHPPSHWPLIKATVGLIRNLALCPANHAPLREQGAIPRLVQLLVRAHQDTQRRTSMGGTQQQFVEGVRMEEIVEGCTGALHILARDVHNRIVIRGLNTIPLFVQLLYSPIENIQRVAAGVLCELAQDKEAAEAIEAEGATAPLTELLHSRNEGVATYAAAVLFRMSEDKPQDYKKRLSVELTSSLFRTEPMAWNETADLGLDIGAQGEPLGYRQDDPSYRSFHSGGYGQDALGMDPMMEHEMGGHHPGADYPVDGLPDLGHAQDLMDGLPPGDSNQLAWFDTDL

T2: full-length beta-Catenin (Uniprot ID P35222) (Homo sapiens (Human), UniProt P35222 1-781)
T2 construct: the AlphaScreen used a Histidine (Nickel Chelate) detection kit, so a His tag is likely but not described; also called B-Catenin; bCat
T2 sequence: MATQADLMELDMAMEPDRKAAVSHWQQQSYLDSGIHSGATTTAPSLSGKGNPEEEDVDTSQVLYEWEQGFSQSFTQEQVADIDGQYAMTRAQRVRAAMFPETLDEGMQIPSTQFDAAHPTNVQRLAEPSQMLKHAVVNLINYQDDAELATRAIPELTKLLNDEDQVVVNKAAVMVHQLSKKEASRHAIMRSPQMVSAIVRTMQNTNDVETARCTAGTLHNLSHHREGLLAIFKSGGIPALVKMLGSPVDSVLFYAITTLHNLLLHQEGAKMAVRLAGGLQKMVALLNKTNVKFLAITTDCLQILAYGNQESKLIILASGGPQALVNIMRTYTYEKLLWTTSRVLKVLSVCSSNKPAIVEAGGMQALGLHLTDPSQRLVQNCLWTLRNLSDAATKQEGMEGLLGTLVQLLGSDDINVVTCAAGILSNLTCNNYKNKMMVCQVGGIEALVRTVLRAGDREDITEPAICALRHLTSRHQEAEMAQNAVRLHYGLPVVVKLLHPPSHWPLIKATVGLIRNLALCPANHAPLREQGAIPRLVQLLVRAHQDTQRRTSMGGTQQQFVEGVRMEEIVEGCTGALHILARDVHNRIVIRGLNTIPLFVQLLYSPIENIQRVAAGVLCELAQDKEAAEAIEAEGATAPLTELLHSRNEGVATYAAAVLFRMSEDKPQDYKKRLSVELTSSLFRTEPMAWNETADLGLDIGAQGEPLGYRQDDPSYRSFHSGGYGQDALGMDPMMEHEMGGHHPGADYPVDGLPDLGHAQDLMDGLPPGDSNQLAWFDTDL


How the values were obtained:
[1] = target: T1, full-length beta-Catenin (Uniprot ID …); assay: AlphaScreen (nickel chelate) competition; full-length beta-catenin + biotin-TCF4(10-53) probe as competitor; peptide titrated
Description: Equal volume of the titrated peptide was added to the plate and incubated for 15 minutes at 20° C. Then 4 uL of donor and 4 uL acceptor beads at 10 ug/mL were added to the plate, for a 16 uL reaction pool and protected from light for 60 minutes at 20° C. prior to read. Reads were performed on a CLARIOstar plate reader (BMG Labtech) in duplicate, and data were fitted to a 1:1 binding model with hill slope using an in-house script. All provided concentrations are final concentrations.

[2] = target: T1, full-length beta-Catenin (Uniprot ID …); assay: fluorescence polarization competition; full-length beta-catenin + 5FAM-TCF4(10-53) probe as competitor; peptide titrated
Description: (§1) The plate was incubated protected from light for 60 minutes at 20° C. prior to read. Reads were performed on a CLARIOstar plate reader (BMG Labtech) in duplicate, and data were fitted to a 1:1 binding model with hill slope using an in-house script. All provided concentrations are final concentrations.

[3] = target: T2, full-length beta-Catenin (Uniprot ID …); assay: FP competition vs 5FAM-TCF4(10-53) probe on full-length beta-catenin
Description: as §1

Row | EC50 [1] [nM] | EC50 [2] [nM] | EC50 [3] [µM] | Binder
1 | 549 | 1990 | – | Ac-[αAllylPro]DI[B5(5)]DEAAFV[S8]FWH-NH2 (staple 1-4, 4-11, Stapled peptide composition) [I-176]
2 | 51 | 310 | – | XDIXDEAAFQXFWQ (not fully specified; As printed: Ac-PL3-Asp-Ile-B5-Asp-Glu-Ala-Ala-Phe-Gln-S8-Phe-Trp-Gln-NH2. N-terminal Ac; C-terminal amide; PL3 (1), B5 (4), S8 (11) stapled by olefin metathesis (PL3-B5 and B5-S8), Stapled peptide composition; this is the later-eluting isomer composition) [I-181]
3 | 143 | 1740 | – | Ac-[αAllylPro]DA[B5(4)]DEAA[Phe(3-Me)]V[S8]FWQ-NH2 (staple 1-4, 4-11, Stapled peptide composition) [I-208]
4 | 152 | 1630 | – | XDAXDEAAFQXFWH (not fully specified; As printed: Ac-PL3-Asp-Ala-B5-Asp-Glu-Ala-Ala-Phe-Gln-S8-Phe-Trp-His-NH2. N-terminal Ac; C-terminal amide; PL3 (1), B5 (4), S8 (11) stapled by olefin metathesis (PL3-B5 and B5-S8), Stapled peptide composition) [I-178]
5 | – | – | 5 | Ac-[αAllylPro]DA[B5(4)]DDAA[Phe(3-Cl)]V[S8]FWQ-NH2 (staple 1-4, 4-11, Ac-PL3-Asp-Ala-B5-Asp-Asp-Ala-Ala-3C1F-Val-S8-Phe-Trp-Gln-NH2; stapled peptide composition) [I-306]
6 | – | – | 5 | Ac-[αAllylPro]DA[B5(14)]DDAAHV[S8]FWQ-NH2 (staple 1-4, 4-11; not fully specified (residue 9), Ac-PL3-Asp-Ala-B5-Asp-Asp-Ala-Ala-3meH-Val-S8-Phe-Trp-Gln-NH2; stapled peptide composition) [I-331]
7 | – | – | 5 | Ac-[αAllylPro]DA[B5(4)]DDAA[His(τ-Me)]V[S8]FWQ-NH2 (staple 1-4, 4-11; not fully specified; printed as Ac-PL3-Asp-Ala-B5-Asp-Asp-Ala-Ala-1meH-Val-S8-Phe-Trp-Gln-NH2, Ac-PL3-Asp-Ala-B5-Asp-Asp-Ala-Ala-1meH-Val-S8-Phe-Trp-Gln-NH2; stapled peptide composition) [I-329]
8 | – | – | 3.98 | Ac-[αAllylPro]DA[B5(4)]DHAAFV[S8]FWQ-NH2 (staple 1-4, 4-11, Ac-PL3-Asp-Ala-B5-Asp-His-Ala-Ala-Phe-Val-S8-Phe-Trp-Gln-NH2; stapled peptide composition) [I-305]
9 | – | – | 5 | Ac-[αAllylPro]DA[B5(4)]DDAA[His(τ-Me)]V[S8]FWQ-NH2 (staple 1-4, 4-11, Ac-PL3-Asp-Ala-B5-Asp-Asp-Ala-Ala-1meH-Val-S8-Phe-Trp-Gln-NH2; stapled peptide composition) [I-330]
10 | – | – | 5 | Ac-[αAllylPro]DA[B5(4)]DHAAFV[S8]FWQ-NH2 (staple 1-4, 4-11, Ac-PL3-Asp-Ala-B5-Asp-His-Ala-Ala-Phe-Val-S8-Phe-Trp-Gln-NH2; stapled peptide composition) [I-304]
11 | – | 5000 | – | Ac-[αAllylPro]DA[B5(4)]DEAA[Phe(3,4,5-F3)]V[S8]FWQ-NH2 (staple 1-4, 4-11; not fully specified; printed as Ac-PL3-Asp-Ala-B5-Asp-Glu-Ala-Ala-345FF-Val-S8-Phe-Trp-Gln-NH2, Stapled peptide composition) [I-211]
12 | 94 | 696 | – | Ac-[αAllylPro]DI[B5(5)]DDAAFQ[SeN]FWH-NH2 (staple 1-4, 4-11; not fully specified; printed as Ac-PL3-Asp-Ile-B5-Asp-Asp-Ala-Ala-Phe-Gln-SeN-Phe-Trp-His-NH2, Stapled peptide composition) [I-190]
13 | 549 | 1990 | – | Ac-[αAllylPro]DI[B5(5)]DEAAFV[S8]FWH-NH2 (staple 1-4, 4-11, Stapled peptide composition) [I-177]
14 | 143 | 1740 | – | Ac-[αAllylPro]DA[B5(4)]DEAA[Phe(3-Me)]V[S8]FWQ-NH2 (staple 1-4, 4-11, Stapled peptide composition) [I-207]
15 | 518 | 5000 | – | XDAXDEAAFAXFWA (not fully specified; As printed: Ac-PL3-Asp-Ala-B5-Asp-Glu-Ala-Ala-Phe-Ala-S8-Phe-Trp-Ala-NH2. N-terminal Ac; C-terminal amide; PL3 (1), B5 (4), S8 (11) stapled by olefin metathesis (PL3-B5 and B5-S8), Stapled peptide composition; this is the earlier-eluting isomer composition) [I-186]
16 | 156 | 1600 | – | Ac-[αAllylPro]DI[B5(5)]DDAAFQ[SeN]FWH-NH2 (staple 1-4, 4-11; not fully specified; printed as Ac-PL3-Asp-Ile-B5-Asp-Asp-Ala-Ala-Phe-Gln-SeN-Phe-Trp-His-NH2, Stapled peptide composition) [I-189]
17 | 156 | 1600 | – | Ac-[αAllylPro]DI[B5(5)]DDAAFQ[SeN]FWH-NH2 (staple 1-4, 4-11; not fully specified; printed as Ac-PL3-Asp-Ile-B5-Asp-Asp-Ala-Ala-Phe-Gln-SeN-Phe-Trp-His-NH2, Stapled peptide composition) [I-188]
18 | 628 | 3110 | – | Ac-[αAllylPro]DA[B5(4)]DEAA[Phe(3,4-F2)]V[S8]F[2Nal]Q-NH2 (staple 1-4, 4-11, Stapled peptide composition) [I-184]

Source: patent US20240116985A1 (published 2024)
